The values below come from article PMC11914125.

The target in data set [1] is DNA polymerase beta (full-length) (Homo sapiens) (UniProt P06746). The data set can be described thus: EMSA. The conditions noted are these: EMSA: 20 nM NCP, 20 mM HEPES pH 7.5, 100 mM NaCl, 1 mM EDTA, 1 mM DTT, 0.1 mg/ml BSA, 20 min, 4 °C, 5% native PAGE, 0.2x TBE.
The target of data set [2] is Pol beta lyase domain (8 kDa) (rat) (UniProt P06766). Nature of the data set: EMSA. Particulars: EMSA: 20 nM NCP, 20 mM HEPES pH 7.5, 100 mM NaCl, 1 mM EDTA, 1 mM DTT, 0.1 mg/ml BSA, 20 min, 4 °C, 5% native PAGE, 0.2x TBE.

For “ATCGGATGTATATATCTGACACGTGCCTGGAGACTAGGGAGTAATCCCCTTGGCGGTTAAAACGCGGGGGACAGCGCGTACGTGCGTTTAAGCGGTGCTAGAGCTGTCTACGACCAATTGAGCGGCCTCGGCACCGGGATTCTCGAT (double strand) [ND-NCP]”, the results for the dissociation constant Kd in data set [1] and in data set [2] were 217 nM and 451 nM, respectively.

With “ATCGGATGTATATATCTGACACGTGCCTGGAGACTAGGGAGTAATCCCCTTGGCGGTTAAAACGCGGGGGACAGCGCGTACGTGCGTTTAAGCGGTGCTAGAGCTGTCTACGACCAATTGAGCGGCCTCGGCACCGGGATTCTCGAT / ATCGAGAATCCCGGTGCCGAGGCCGCTCAATTGGTCGTAGACAGCTCTAGCACCGCTTAAACGCACGTACGCGCTGTCCCCCGCGT / TTAACCGCCAAGGGGATTACTCCCTAGTCTCCAGGCACGTGTCAGATATATCCATCCGAT [Gap-NCP-1.5]”, the dissociation constant Kd in data set [1] (5'-phosphate on strand 3) worked out at 149 nM. The same measure, in the same setting: the result for “ATCGGATGTATATATCTGACACGTGCCTGGAGACTAGGGAGTAATCCCCTTGGCGGTTAAAACGCGGGGGACAGCGCGTACGTGCGTTTAAGCGGTGCTAGAGCTGTCTACGACCAATTGAGCGGCCTCGGCACCGGGATTCTCGAT / ATCGAGAATCCCGGTGCCGAGGCCGCTCAATTGGTCGTAGACAGCTCTAGCACCGCTTAAACGCACGTACGCGCTGTCCCCCGCGTTTTAACCGC / AAGGGGATTACTCCCTAGTCTCCAGGCACGTGTCAGATATATCCATCCGAT [Gap-NCP-2.5]” reads 118 nM; that for “ATCGGATGTATATATCTGACACGTGCCTGGAGACTAGGGAGTAATCCCCTTGGCGGTTAAAACGCGGGGGACAGCGCGTACGTGCGTTTAAGCGGTGCTAGAGCTGTCTACGACCAATTGAGCGGCCTCGGCACCGGGATTCTCGAT / ATCGAGAATCCCGGTGCCGAGGCCGCTCAATTGGTCGTAGACAGCTCTAGCACCGCTTAAACGCACGTACGCGCTGTCCCCCGCGTTTTAACCGCCAAGGGGATTA / TCCCTAGTCTCCAGGCACGTGTCAGATATATCCATCCGAT [Gap-NCP-3.5]”, 141 nM.

“ATCGGATGTATATATCTGACACGTGCCTGGAGACTAGGGAGTAATCCCCTTGGCGGTTAAAACGCGGGGGACAGCGCGTACGTGCGTTTAAGCGGTGCTAGAGCTGTCTACGACCAATTGAGCGGCCTCGGCACCGGGATTCTCGAT / ATCGAGAATCCCGGTGCCGAGGCCGCTCAATTGGTCGTAGACAGCTCTAGCACCGCTTAAACGCACGTACGCGCTGTCCCCCGCGTTTTAACCGCCAAGGGGATTACTCCCTA / TCTCCAGGCACGTGTCAGATATATCCATCCGAT [Gap-NCP-4.5+4]” had a dissociation constant Kd in data set [1] (5'-phosphate on strand 3) of 94 nM.

“ATCGGATGTATATATCTGACACGTGCCTGGAGACTAGGGAGTAATCCCCTTGGCGGTTAAAACGCGGGGGACAGCGCGTACGTGCGTTTAAGCGGTGCTAGAGCTGTCTACGACCAATTGAGCGGCCTCGGCACCGGGATTCTCGAT / ATCGAGAATCCCGGTGCCGAGGCCGCTCAATTGGTCGTAGACAGCTCTAGCACCGCTTAAACGCACGTACGCGCTGTCCCCCGCGTTTTAACCGCCAAGGGGATTACTCCCTAG / CTCCAGGCACGTGTCAGATATATCCATCCGAT [Gap-NCP-4.5+3]”: the Kd in data set [1] (5'-phosphate on strand 3) came to 115 nM. Same read-out and setting: the result for “ATCGGATGTATATATCTGACACGTGCCTGGAGACTAGGGAGTAATCCCCTTGGCGGTTAAAACGCGGGGGACAGCGCGTACGTGCGTTTAAGCGGTGCTAGAGCTGTCTACGACCAATTGAGCGGCCTCGGCACCGGGATTCTCGAT / ATCGAGAATCCCGGTGCCGAGGCCGCTCAATTGGTCGTAGACAGCTCTAGCACCGCTTAAACGCACGTACGCGCTGTCCCCCGCGTTTTAACCGCCAAGGGGATTACTCCCTAGT / TCCAGGCACGTGTCAGATATATCCATCCGAT [Gap-NCP-4.5+2]” reads 137 nM.

As for “ATCGGATGTATATATCTGACACGTGCCTGGAGACTAGGGAGTAATCCCCTTGGCGGTTAAAACGCGGGGGACAGCGCGTACGTGCGTTTAAGCGGTGCTAGAGCTGTCTACGACCAATTGAGCGGCCTCGGCACCGGGATTCTCGAT / ATCGAGAATCCCGGTGCCGAGGCCGCTCAATTGGTCGTAGACAGCTCTAGCACCGCTTAAACGCACGTACGCGCTGTCCCCCGCGTTTTAACCGCCAAGGGGATTACTCCCTAGTCT / CAGGCACGTGTCAGATATATACATCCGAT [Gap-NCP-4.5]”, the Kd amounted to 98 nM in data set [1] (5'-phosphate on strand 3) and 125 nM in data set [2] (5'-phosphate on strand 3).

For “ATCGGATGTATATATCTGACACGTGCCTGGAGACTAGGGAGTAATCCCCTTGGCGGTTAAAACGCGGGGGACAGCGCGTACGTGCGTTTAAGCGGTGCTAGAGCTGTCTACGACCAATTGAGCGGCCTCGGCACCGGGATTCTCGAT / ATCGAGAATCCCGGTGCCGAGGCCGCTCAATTGGTCGTAGACAGCTCTAGCACCGCTTAAACGCACGTACGCGCTGTCCCCCGCGTTTTAACCGCCAAGGGGATTACTCCCTAGTCTCCAGGCACGT / TCAGATATATCCATCCGAT [Gap-NCP-5.5]”, in data set [1] (5'-phosphate on strand 3), the equilibrium dissociation constant (Kd) is 51 nM.
